Legend:
[1] = target: Crotalus durissus terrificus venom; assay: ELISA, wells coated with 5 µg/ml C.d.t. venom; dilution 1:3125
[2] = target: Crotalus durissus terrificus venom; assay: ELISA, C.d.t. venom-coated wells; dilution 1:5
[3] = target: Crotalus durissus terrificus venom; assay: ELISA, wells coated with 5 µg/ml C.d.t. venom; dilution 1:625
[4] = target: Crotalus durissus terrificus venom; assay: ELISA, C.d.t. venom-coated wells; dilution 1:25
[5] = target: Crotalus durissus terrificus venom; assay: ELISA, wells coated with 5 µg/ml C.d.t. venom; dilution 1:25
[6] = target: Crotalus durissus terrificus venom; assay: ELISA, wells coated with 5 µg/ml C.d.t. venom; undiluted
[7] = target: Crotalus durissus terrificus venom; assay: ELISA, C.d.t. venom-coated wells; dilution 1:125
[8] = target: Crotalus durissus terrificus venom; assay: ELISA, C.d.t. venom-coated wells; dilution 1:312,500
[9] = target: Crotalus durissus terrificus venom; assay: ELISA, C.d.t. venom-coated wells; dilution 1:3125
[10] = target: Crotalus durissus terrificus venom; assay: ELISA, wells coated with 5 µg/ml C.d.t. venom; dilution 1:125
[11] = target: Crotalus durissus terrificus venom; assay: ELISA, wells coated with 5 µg/ml C.d.t. venom; dilution 1:5
[12] = target: Crotalus durissus terrificus venom; assay: ELISA, C.d.t. venom-coated wells; dilution 1:625
[13] = target: Crotalus durissus terrificus venom; assay: ELISA, C.d.t. venom-coated wells; dilution 1:62,500

preimmune IgY (antibody)
absorbance (ELISA as in Example 4) [1]: 0.002 OD
absorbance (ELISA as in Example 4) [2]: < 0 OD
absorbance (ELISA as in Example 4) [3]: 0 OD
absorbance (ELISA as in Example 4) [4]: 0.016 OD
absorbance (ELISA as in Example 4) [5]: 0 OD
absorbance (ELISA as in Example 4) [6]: 0.003 OD
absorbance (ELISA as in Example 4) [7]: < 0 OD
absorbance (412 nm filter) [8]: 0.01 OD
absorbance (ELISA as in Example 4) [9]: < 0 OD
absorbance (ELISA as in Example 4) [10]: 0.003 OD
absorbance (ELISA as in Example 4) [11]: < 0 OD
absorbance (ELISA as in Example 4) [12]: < 0 OD
absorbance (412 nm filter) [13]: 0.001 OD

Reference: patent US20030219457A1
